Assay results taken from the DeepSol protein solubility set.

Assay: soluble on expression in E. coli; label from the status in PepcDB or PDB records

| Sequence | soluble on expression in E. coli |
| --- | --- |
| VQAANLMDRIKANPVSEKNIDEKFIYNTADFSIELFKNSIDDKENSLISPLSAMLALAMTANGADNETLAQMEKALGKDISIEDLNKYLYTYMKKLPNEEKSKLTIANSIWFKENDFMPSKDFLQIIADYYKADIFKAAFDSSTVSDINNWVKSKTNGMIDKILNKIDPEDVMYLINAVAFDAEWETVYEKASVHEDIFTDVYGNRQKVEFMNSEENLYIEEENAIGFVKPYAKNHYSFVAILPDENISVNEYIKTLTGQKFIDLIKNAKITLVRASLPKFKYEYTIKMNETLESLGMTDAFLPDKADFSKLGKSDIGNLYISEVLHKTFISVDELGTKAGAVTSVDITAAGIPVNFKTVKLNRPFIFAIIDNSTNLPIFIGTVLSL | soluble |
| VRKCLSDTDCTNGEKCVQKNKICSTIVEIQRCEKEHFTIPCKSNNDCQVWAHEKICNKGCCWDLL | soluble |
| VRWIVDGMNVIGSRPDGWWRDRHRAMVMLVERLEGWAITKARGDDVTVVFERPPSTAIPSSVVEVAHAPKAAANSADDEIVRLVRSGAQPQEIRVVTSDKALTDRVRDLGAAVYPAERFRDLIDPRGSNAARRTQ | soluble |
| VSGREPSSRIIRVSVKTPQDCHEFFLAENSNVRRFKKQISKYLHCNADRLVLIFTGKILRDQDILSQRGILDGSTVHVVVRSH | soluble |
| VSSQKTSSLPKYTPKVNSSINNYIRKKNMKAPRIEEDYTSYFPKYGYRNGVGRPEGIVVHDTANDNSTIDGEIAFMKRNYTNAFVHAFVDGNRIIETAPTDYLSWGAGPYGNQRFINVEIVHTHDYDSFARSMNNYADYAATQLQYYNLKPDSAENDGRGTVWTHAAISNFLGGTDHADPHQYLRSHNYSYAELYDLIYEKYLIKTKQVAPWG | soluble |
| VSTLSKEQVKEIIKGNNFQSVADVSAYLRDIFKDIIQELLEAELEAKLGYAKDDVENKNTDNSRNGYSPKTIKSEFREVEIQVPRDRKGEFKPQIIPKYQRNVSGIEEKVIALYARGMSTRDISEQIEELYGFSLSPEMVSKITDRIAPEIKEWQQRPLEPIYTFVFMDEIH | soluble |
| VTEEEIHAMLEEGSVAGIIEQQEHEMVRNVFRLDDRQLGSLMVPRADIIYLDTALPLEENMKRVVESEHSRFPVCHNGLQSLLGVVNAKQLLAQTIKGGVTNLAEHLQPCVYVPETLTGMELLDHFRTSGTQMVFVVDEYGEIQGLVTLQDMLEAVTGEFA | not soluble |
| VVGGTDADEGEWPWQVSLHALGQGHICGASLISPNWLVSAAHCYIDDRGFRYSDPTQWTAFLGLHDQSQRSAPGVQERRLKRIISHPFFNDFTFDYDIALLELEKPAEYSSMVRPISLPDASHVFPAGKAIWVTGWGHTQYGGTGALILQKGEIRVINQTTCENLLPQQITPRMMCVGFLSGGVDSCQGDSGGPLSSVEADGRIFQAGVVSWGDGCAQRNKPGVYTRLPLFRDWIKENTGV | soluble |
| VVTRIVILGGGPAGYEAALVAATSHPETTQVTVIDCDGIGGAAVLDDCVPSKTFIASTGLRTELRRAPHLGFHIDFDDAKISLPQIHARVKTLAAAQSADITAQLLSMGVQVIAGRGELIDSTPGLARHRIKATAADGSTSEHEADVVLVATGASPRILPSAQPDGERILTWRQLYDLDALPDHLIVVGSGVTGAEFVDAYTELGVPVTVVASQDHVLPYEDADAALVLEESFAERGVRLFKNARAASVTRTGAGVLVTMTDGRTVEGSHALMTIGSVPNTSGLGLERVGIQLGRGNYLTVDRVSRTLATGIYAAGDCTGLLPLASVAAMQGRIAMYHALGEGVSPIRLRTVAATVFTRPEIAAVGVPQSVIDAGSVAARTIMLPLRTNARAKMSEMRHGFVKIFCRRSTGVVIGGVVVAPIASELILPIAVAVQNRITVNELAQTLAVYPSLSGSITEAARRLMAHDDLDCTAAQDAAEQLALVPHHLPTSN | soluble |
| WNIHGKESCDVQLYIKRQSEHSILAGDPFELECPVKYCANRPHVTWCKLNGTTCVKLEDRQTSWKEEKNISFFILHFEPVLPNDNGSYRCSANFQSNLIESHSTTLYVTDVKHHHHHHHH | soluble |
| WRKDIVLPKDQAKGVRPYNPKFKDSEYFSRYNALINDERLIEFAKKNNYKITFFPHPDIQQQIVDFEKHDYVEFADYNSSYQMLFNSSNIMITDFSSVAFDFAYEKKPVIYYQYEKSYHFKLDYYDYKKMGFGDVLENHNSLVDKVIYYMKNNSRMEDKYRKRVDNFFAYTDKNNRNRIYNAILE | not soluble |
| YFQSMEAEDFECSSHCSELSWRQNEQRRQGLFCDITLCFGGAGGREFRAHRSVLAAATEYFTPLLSGQFSESRSGRVEMRKWSSEPGPEPDTVEAVIEYMYTGRIRVSTGSVHEVLELADRFLLIRLKEFCGEFLKKKLHLSNCVAIHSLAHMYTLSQLALKAADMIRRNFHKVIQDEEFYTLPFHLIRDWLSDLEITVDSEEVLFETVLKWVQRNAEERERYFEELFKLLRLSQMKPTYLTRHVKPERLVANNEVCVKLVADAVERHALRAENIQSGT | soluble |
| YGAWAAQELQAKLAEIGAPIQGNREELVERLQSYTRQTGIVLNRP | soluble |
| YLASDGKTIIMVGRNNLQNEELTFKIAKKGELWFHAKDIPGSHVVIKDNLNPTDEVKTDAAELAAYYSKARLSNLVQVDMIDVKKLNK | not soluble |
| YLGGDLKYYGHTIKKANVQAIINYAVQYNILPSGIITQLYLESFWGDSTVGKRDNNWAGMSGGAQTRPSGVKVTTGMARPANEGGTYMHYASVDDFLKDYTYLLAKQGIYNVVGKKNIADYTKGLFRAGGAKYDYAAAGY | not soluble |
| YLLGHSLGELTCLSVNSLFSLKDLFDIANFRNKLMVTSTEKYLVAHNINRSNKFEMWALSSPRATDLPQEVQKLLNSPNLLSSSQNTISVANANSVKQCVVTGLVDDLESLRTELNLRFPRLRITELTNPYNIPFHNSTVLRPVQEPLYDYIWDILKKNGTHTLMELNHPIIANLDGNISYYIHHALDRFVKCSSRTVQFTMCYDTINSGTPVEIDKSICFGPGNVIYNLIRRNCPQVDTIEYTS | soluble |
| YNIYNNPKEANNRKDTVLYLMHKHNRINDKQYADAKKIDLKANLVERTKKERQVTGNEKNPEYDSYVNFVQSELMNNKYFKDKNLGSVLQSG | not soluble |
| YPFWAQQTYPETPREPTGRIVCANCHLAAKPTEVEVPQSVLPDTVFKAVVKIPYDTSVQQVGADGSKVGLNVGAVLMLPEGFKIAPEDRIPEELKEEIGDVYFQPYGEDKDNIVIVGPLPGEQYQEIVFPVLSPNPANDKNIHFGKYSVHVGGNRGRGQVYPTGEKSNNNLYSAAATGTISKIAKQEGEDGSVKYLVDIKTESGEVVSDTIPAGPELIVSEGQAVTAGDALTNNPNVGGFGQLDAEIVLQDANR | soluble |
| YTDRKNRIVEVDIASKAKRTVMQNPEGEFYEVNYSPDSQWITYTKSGANNMSVIYVYHLTSGKEYPVTE | not soluble |
| YTIEELVKQADQQFNGNIAELMIATEVEMSGRNREDIIKIMSRNLQVMKAAVTEGLTSTKSISGLTGGDAVKMDNYIKKGNSLSDTTILNAVRNAIAVNELNAKMGLVCATPTAGSAGCLPAVLATAIEKLDLSEKEQLEFLFTAGAFGLVIGNNASISGAEGGCQAE | not soluble |
| YTRRSIEKMVKTQVDSKVLDEKNKYYEQQLVTMKQTLESQRTVRHDLKNKLSPLIYLAESGKTDELVEQVQELGSLSVLGKIYADSGNITIDYIINLKLQALANKGVTIFCEINVPNDIDVVPFDLSTVLGNLIDNAAEALEYVQNEKWIGIKISYQVGFLMIQVANSFDGIVHLDNKKIISRKEDTENHGIGLTSIKKIAGKYDGEVVVQHDDKQFDVIVKLLA | not soluble |
| YYTDPSLIRQMWDKLERDGFTGGKILDPSMGTGNFFAAMPKHLREKSELYGVELDTITGAIAKHLHPNSHIEIKGFETVAFNDNSFDLVISNVPFANIRIADNRYDRPYMIHDYFVKKSLDLLHDGGQVAIISSTGTMDKRTENILQDIRETTEFLGGVRLPDSAFKAIAGTSVTTDMLFFQKHLDKGYVA | not soluble |
